Key:
[1] = system: panel of cell lines representative of diverse NHL subtypes (ABC and GCB DLBCL, CLL, MCL); conditions: in combination with rituximab; described in WO 2016/200676; cited from earlier work
[2] = QW versus Q3W regimen, with rituximab
Description: Adverse events are monitored continuously throughout the study. Adverse events include any noxious, pathologic, or unintended change in anatomical, physiologic, or metabolic function as indicated by physical signs, symptoms, or laboratory changes occurring in any phase of a clinical study, whether or not considered study drug-related. PK parameters that are evaluated include, but are not limited to: Cmax, Tmax, Terminal half-life (t1/2), Vss, CL, AUC0-t, AUCinf.

CD37 [3] = molecular target: T1, CD37 (Homo sapiens, UniProt P11049); assay: CD37 receptor occupancy on CD3+T and CD56+NK cells of Cohort A and B subjects; type: in vivo
T1 construct: endogenous in cells; host or cells: CD3+ T and CD56+ NK lymphocytes in blood samples from DLBCL patients of Cohorts A and B
T1 sequence (P11049 1-281): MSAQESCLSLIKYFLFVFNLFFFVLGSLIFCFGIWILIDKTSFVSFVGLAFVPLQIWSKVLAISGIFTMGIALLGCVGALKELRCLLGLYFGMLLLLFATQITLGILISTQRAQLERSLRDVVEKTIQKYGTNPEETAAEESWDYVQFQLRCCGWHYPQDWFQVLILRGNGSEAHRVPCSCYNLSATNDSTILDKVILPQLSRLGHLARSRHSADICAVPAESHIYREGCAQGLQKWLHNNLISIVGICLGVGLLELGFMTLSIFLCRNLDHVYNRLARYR
Excerpt: The maximum RO observed at C1D2 (cycle 1-dose 2) and C1D3 was greater than 90% for both cohorts.

CD37 [4] = molecular target: T1, CD37; assay: Theoretical receptor occupancy derived from observed Cmax, monotherapy Phase 1 study; type: in vivo; conditions: even at low dose levels
Description: Therefore, a 0.4 mg/kg loading dose followed by 2 weekly doses of 0.2 mg/kg is expected to provide adequate target saturation across a 3-weeks cycle.

[5] = Phase 1 monotherapy study, safety; type: in vivo, human
Description: As such, a more frequent QW dosing schedule with 0.4/0.2/0.2 mg/kg (combined with rituximab Q3W at 375 mg/m^2) should not increase the risk of neutropenia.

[6] = low doses such as 0.4 mg/kg and 0.2 mg/kg; cited from earlier work

## Debio 1562: immunoconjugate containing the huCD37-3 antibody, the SMCC linker, and the DM1 maytansinoid
[1]
  pro-apoptotic activity of the combination: synergistic pro-apoptotic activity
[2]
  safety: comparable in the QW regimen and the Q3W regimen
CD37 [3]; C1D1, CD3+T and CD56+NK lymphocytes, Cohorts A and B
  CD37 receptor occupancy (RO) after administration: greater than 80%
CD37 [3]; C1D2 and C1D3, both cohorts
  maximum RO: greater than 90%
CD37 [3]; samples just before re-administration in cycle 2 and cycle 3
  RO just before re-administration: No RO was observed
CD37 [4]
  saturation of the CD37 sites (theoretical receptor occupancy): > 95%
[5]; Phase 1, without G-CSF
  maximum tolerated dose (MTD): 1 mg/kg
[5]; majority of patients, single Q3W dosing with 0.2-0.4 mg/kg, Phase 1
  neutrophil count: no decrease in neutrophil count
[6]
  clearance: substantially higher at low doses
  half-life: lower
